# In patent US20170166895:
# Assays:
# [1] = biological target: T1, Complement component 3 (C3) (Homo sapiens) (UniProt P01024+P01024); assay: inhibition; conditions: P = NapdU (all U); 3'-3' idT; hemolysis, 20 nM C3, GVB++, 37 C
# [2] = biological target: T1, Complement component 3 (C3) (Homo sapiens); assay: filter; conditions: 3'-3' idT
# [3] = all P = NapdU, 2'-OMe at 1,2,3,5,7,9,10,13,19,20,22-28, C3-spacer replaces C17, SB18T0.01, 37C
# [4] = all P = NapdU, U1 = 2'-OMe-U, 2'-OMe at 1,2,3,5,7,9,10,13,19,20,22-28, C3-spacer replaces C17, SB18T0.01, 37C
# T1 sequence (P01024 23-667, chain 1 of 2): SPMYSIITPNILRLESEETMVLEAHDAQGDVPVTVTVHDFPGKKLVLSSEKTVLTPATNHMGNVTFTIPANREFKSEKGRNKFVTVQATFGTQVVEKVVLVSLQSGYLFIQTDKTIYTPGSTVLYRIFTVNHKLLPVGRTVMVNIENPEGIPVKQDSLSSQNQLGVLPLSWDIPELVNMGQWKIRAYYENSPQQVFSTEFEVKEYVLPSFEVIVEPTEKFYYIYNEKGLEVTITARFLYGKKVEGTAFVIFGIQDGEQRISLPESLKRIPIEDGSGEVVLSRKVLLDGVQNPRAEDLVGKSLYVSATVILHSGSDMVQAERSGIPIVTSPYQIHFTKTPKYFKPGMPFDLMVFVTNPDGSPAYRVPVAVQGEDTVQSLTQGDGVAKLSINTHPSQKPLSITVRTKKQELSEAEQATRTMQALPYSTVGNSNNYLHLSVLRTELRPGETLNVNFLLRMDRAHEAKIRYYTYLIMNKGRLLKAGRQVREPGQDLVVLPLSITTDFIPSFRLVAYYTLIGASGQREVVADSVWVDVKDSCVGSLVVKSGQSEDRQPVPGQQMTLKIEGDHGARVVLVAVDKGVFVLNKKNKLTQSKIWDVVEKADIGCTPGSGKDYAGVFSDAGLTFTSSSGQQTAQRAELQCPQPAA
# T1 sequence (P01024 672-1663, chain 2 of 2): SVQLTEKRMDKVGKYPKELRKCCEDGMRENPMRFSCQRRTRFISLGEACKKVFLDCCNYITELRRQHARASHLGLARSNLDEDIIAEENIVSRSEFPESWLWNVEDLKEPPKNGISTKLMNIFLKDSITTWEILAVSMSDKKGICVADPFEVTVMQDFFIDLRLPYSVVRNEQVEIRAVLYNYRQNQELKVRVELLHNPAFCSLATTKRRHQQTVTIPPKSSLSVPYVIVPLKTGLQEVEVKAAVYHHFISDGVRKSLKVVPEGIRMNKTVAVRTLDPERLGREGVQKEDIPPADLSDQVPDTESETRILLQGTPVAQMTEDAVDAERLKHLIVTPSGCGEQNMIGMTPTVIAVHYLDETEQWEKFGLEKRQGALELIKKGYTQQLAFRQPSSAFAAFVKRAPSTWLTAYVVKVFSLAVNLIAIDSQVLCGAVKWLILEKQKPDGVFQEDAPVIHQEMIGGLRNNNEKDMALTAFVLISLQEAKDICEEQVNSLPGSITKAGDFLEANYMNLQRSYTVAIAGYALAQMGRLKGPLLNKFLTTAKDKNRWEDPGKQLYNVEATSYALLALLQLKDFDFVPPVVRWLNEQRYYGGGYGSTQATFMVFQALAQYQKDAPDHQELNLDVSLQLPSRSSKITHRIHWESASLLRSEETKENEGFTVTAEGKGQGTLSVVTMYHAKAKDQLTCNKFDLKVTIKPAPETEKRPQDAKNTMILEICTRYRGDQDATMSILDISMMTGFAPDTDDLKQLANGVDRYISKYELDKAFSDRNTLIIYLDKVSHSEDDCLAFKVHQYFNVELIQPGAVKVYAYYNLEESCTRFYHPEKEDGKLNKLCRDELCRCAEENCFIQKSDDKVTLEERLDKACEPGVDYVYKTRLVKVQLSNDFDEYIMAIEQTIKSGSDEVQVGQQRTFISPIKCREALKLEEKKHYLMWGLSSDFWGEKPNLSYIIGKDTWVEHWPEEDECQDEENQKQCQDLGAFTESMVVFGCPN
sequence,measurement,setting,value
CCGGUGACUCAAUAGUCCGUACGUUCCCG [8491-94_27],IC50,[1],24.6 nM
same,Kd,"[2]; all U = NapdU, SB18T0.01, 37C",0.0658 nM
CCGGUGACUCAAUAGUCCGUACGUUCCCGG [8491-94_26],IC50,[1],15.1 nM
same,Kd,"[2]; all U = NapdU, SB18T0.01, 37C",0.0511 nM
CGGUGACUCAAUAGUCCGUACGUUCCCG [8491-94_53],IC50,[1],17.1 nM
same,Kd,"[2]; all U = NapdU, SB18T0.01, 37C",0.0334 nM
CGGUGACUCAAUAGUCCGUACGUUCCCG [8491-94_69],Kd,"[2]; P = NapdU (all U), 2'-OMe A11, SB18T0.01, 5 mM MgCl2, 37 C",0.272 nM
CGGUGACUCAAUAGUCCGUACGUUCCCG [8491-94_70],Kd,"[2]; P = NapdU (all U), 2'-OMe P12, SB18T0.01, 5 mM MgCl2, 37 C",0.338 nM
CGGUGACUCAAUAGUCCGUACGUUCCCG [8491-94_71],Kd,"[2]; P = NapdU (all U), 2'-OMe A13, SB18T0.01, 5 mM MgCl2, 37 C",0.0256 nM
CGGUGACUCAAUAGUCCGUACGUUCCCG [8491-94_72],Kd,"[2]; all U = NapdU, 2'-OMe at G14, SB18T0.01, 37C",6.17 nM
CGGUGACUCAAUAGUCCGUACGUUCCCG [8491-94_73],Kd,"[2]; all U = NapdU, 2'-OMe at NapdU15, SB18T0.01, 37C",1.32 nM
CGGUGACUCAAUAGUCCGUACGUUCCCG [8491-94_74],Kd,"[2]; P = NapdU (all U), 2'-OMe C16, SB18T0.01, 5 mM MgCl2, 37 C",0.192 nM
CGGUGACUCAAUAGUCCGUACGUUCCCG [8491-94_75],Kd,"[2]; P = NapdU (all U), 2'-OMe C17, SB18T0.01, 5 mM MgCl2, 37 C",0.214 nM
CGGUGACUCAAUAGUCCGUACGUUCCCG [8491-94_76],Kd,"[2]; all U = NapdU, 2'-OMe at G18, SB18T0.01, 37C",0.93 nM
CGGUGACUCAAUAGUCCGUACGUUCCCG [8491-94_77],Kd,"[2]; P = NapdU (all U), 2'-OMe P19, SB18T0.01, 5 mM MgCl2, 37 C",0.0262 nM
CGGUGACUCAAUAGUCCGUACGUUCCCG [8491-94_78],Kd,"[2]; P = NapdU (all U), 2'-OMe A20, SB18T0.01, 5 mM MgCl2, 37 C",0.0718 nM
CGGUGACUCAAUAGUCCGUACGUUCCCG [8491-94_79],Kd,"[2]; P = NapdU (all U), 2'-OMe C21, SB18T0.01, 5 mM MgCl2, 37 C",0.273 nM
CGGUGACUCAAUAGUCCGUACGUUCCCG [8491-94_80],Kd,"[2]; P = NapdU (all U), 2'-OMe G22, SB18T0.01, 5 mM MgCl2, 37 C",0.0678 nM
CGGUGACUCAAUAGUCCGUACGUUCCCG [8491-94_81],Kd,"[2]; P = NapdU (all U), 2'-OMe P23, SB18T0.01, 5 mM MgCl2, 37 C",0.0243 nM
CGGUGACUCAAUAGUCCGUACGUUCCCG [8491-94_82],Kd,"[2]; all U = NapdU, 2'-OMe at NapdU24, SB18T0.01, 37C",0.0118 nM
CGGUGACUCAAUAGUCCGUACGUUCCCG [8491-94_83],Kd,"[2]; P = NapdU (all U), 2'-OMe C25, SB18T0.01, 5 mM MgCl2, 37 C",0.0488 nM
CGGUGACUCAAUAGUCCGUACGUUCCCG [8491-94_84],Kd,"[2]; P = NapdU (all U), 2'-OMe C26, SB18T0.01, 5 mM MgCl2, 37 C",0.0738 nM
CGGUGACUCAAUAGUCCGUACGUUCCCG [8491-94_85],Kd,"[2]; P = NapdU (all U), 2'-OMe C27, SB18T0.01, 5 mM MgCl2, 37 C",0.0524 nM
CGGUGACUCAAUAGUCCGUACGUUCCCG [8491-94_86],Kd,"[2]; P = NapdU (all U), 2'-OMe G28, SB18T0.01, 5 mM MgCl2, 37 C",0.0344 nM
CGGUGACUCAAUAGUCCGUACGUUCCCG [8491-94_88],Kd,"[2]; all U = NapdU, 2'-OMe at 1,3,5,7,13,28, SB18T0.01, 37C",0.0248 nM
CGGUGACUCAAUAGUCCGUACGUUCCCG [8491-94_89],Kd,"[2]; all U = NapdU, 2'-OMe at 1,3,5,7,10,13,28, SB18T0.01, 37C",0.0173 nM
CGGUGACUCAAUAGUCCGUACGUUCCCG [8491-94_93],Kd,"[2]; all U = NapdU, 2'-OMe at 1,2,3,5,7,10,13,19,23,24,26,27,28, SB18T0.01, 37C",0.0152 nM
CGGUGACUCAAUAGUCCGUACGUUCCCG [8491-94_94],Kd,"[2]; all U = NapdU, 2'-OMe at 1,2,3,5,7,10,13,19,23-28, SB18T0.01, 37C",0.0557 nM
CGGUGACUCAAUAGUCCGUACGUUCCCG [8491-94_95],Kd,"[2]; all U = NapdU, 2'-OMe at 1,2,3,5,7,10,13,19,20,23-28, SB18T0.01, 37C",0.0357 nM
CGGUGACUCAAUAGUCCGUACGUUCCCG [8491-94_96],Kd,"[2]; all U = NapdU, 2'-OMe at 1,2,3,5,7,9,10,13,19,20,23-28, SB18T0.01, 37C",0.0364 nM
CGGUGACUCAAUAGUCCGUACGUUCCCG [8491-94_101],Kd,"[2]; all U = NapdU, 2'-OMe at 1,2,3,5,7,9,10,13,20,22,25-28, SB18T0.01, 37C",0.219 nM
CGGUGACUCAAUAGUCCGUACGUUCCCGG [8491-94_29],Kd,"[2]; all U = NapdU, SB18T0.01, 37C",0.0581 nM
CGGUGACUCAAUAGUCCGUACGUUCCCGG [8491-94_30],Kd,"[2]; all U = NapdU, C3-spacer replaces C1, SB18T0.01, 37C",0.0622 nM
CGGUGACUCAAUAGUCCGUACGUUCCCGG [8491-94_31],Kd,"[2]; all U = NapdU, C3-spacer replaces C2, SB18T0.01, 37C",0.14 nM
CGGUGACUCAAUAGUCCGUACGUUCCCGGUCCGAACGCGGAGGA [8491-94_9],Kd,"[2]; all U = NapdU, SB18T0.01, 37C",0.243 nM
CGGUGACUCAAUAGUCCGUACGUUCCG [8491-94_87],Kd,"[2]; all U = NapdU, SB18T0.01, 37C",0.154 nM
CGGUGACUCAAUAGUCCGUATGUUCCCG [8491-94_132],Kd,"[2]; all P = NapdU, T = dT, 2'-OMe at 1,2,3,5,7,9,10,13,19,20,22-28, SB18T0.01, 37C",12.7 nM
CGGUGACUCAAUAGUCGUACGUUCCCG [8491-94_58],Kd,"[2]; all U = NapdU, C3-spacer replaces C17, SB18T0.01, 37C",0.787 nM
CGGUGACUCAAUAGUCGUACGUUCCCG [8491-94_98],Kd,"[2]; all U = NapdU, 2'-OMe at 1,2,3,5,7,9,10,13,19,20,22-28, C3-spacer replaces C17, SB18T0.01, 37C",0.095 nM
CGGUGACUCAAUAGUCGUACGUUCCG [8491-94_56],Kd,"[2]; all U = NapdU, C3-spacer replaces C17, C25, SB18T0.01, 37C",0.0464 nM
CGGUGACUCAAUAGUCGUACGUUCCG [8491-94_99],Kd,"[2]; all U = NapdU, 2'-OMe at 1,2,3,5,7,9,10,13,19,20,22,23,24,26,27,28, C3-spacer replaces C17, C25, SB18T0.01, 37C",0.167 nM
CGGUGACUCAAUAGUCGUATGUUCCCG [8491-94_133],Kd,"[2]; all P = NapdU, T = dT, 2'-OMe at 1,2,3,5,7,9,10,13,19,20 and all residues after T21, C3-spacer replaces C17, SB18T0.01, 37C",5.06 nM
CGGUGACUUAGUCCGUACGUUCCCG [8491-94_57],Kd,"[2]; all U = NapdU, hexaethylene glycol (Heg) replaces C9-A10-A11, SB18T0.01, 37C",0.245 nM
CGGUGAUAAUAGUCGUACGUUCCG [8491-94_55],Kd,"[2]; all U = NapdU, C3-spacer replaces C7, C9, C17, C25, SB18T0.01, 37C",0.0415 nM
CGGUGAUCAAUAGUCGUACGUUCCG [8491-94_54],Kd,"[2]; all U = NapdU, C3-spacer replaces C7, C17, C25, SB18T0.01, 37C",0.0221 nM
CGGUGAUCAAUAGUCGUACGUUCCG [8491-94_100],Kd,"[2]; all U = NapdU, 2'-OMe at 1,2,3,5,9,10,13,19,20,22,23,24,26,27,28, C3-spacer replaces C7, C17, C25, SB18T0.01, 37C",0.0794 nM
CGGUGAUCAAUAGUCGUACGUUCCG [8491-94_102],Kd,"[2]; all U = NapdU, 2'-OMe at 1,2,3,5,10,13,26,27,28, C3-spacer replaces C7, C17, C25, SB18T0.01, 37C",0.0603 nM
GGGUGACUCAAUAGUCCGUACAUUCCCC [8491-94_135],Kd,"[2]; all P = NapdU, 2'-OMe at 1,2,3,5,7,9,10,13,19,20,22-28, SB18T0.01, 37C",15.3 nM
GGGUGACUCAAUAGUCCGUACGUUCCCC [8491-94_127],Kd,"[2]; all U = NapdU, 2'-OMe at 1,2,3,5,7,9,10,13,19,20,22-28, SB18T0.01, 37C",0.045 nM
GGGUGACUCAAUAGUCGUACAUUCCCC [8491-94_136],Kd,[2]; [3],9.1 nM
GGGUGACUCAAUAGUCGUACGUUCCCC [8491-94_134],Kd,[2]; [3],0.107 nM
TGGUGACUCAAUAGUCCGUACGUUCCCA [8491-94_128],Kd,"[2]; all P = NapdU, T1 = dT, 2'-OMe at 2,3,5,7,9,10,13,19,20,22-28, SB18T0.01, 37C",0.038 nM
TGGUGACUCAAUAGUCCGUATGUUCCCA [8491-94_130],Kd,"[2]; all P = NapdU, T = dT, 2'-OMe at 2,3,5,7,9,10,13,19,20,22-28, SB18T0.01, 37C",17.9 nM
TGGUGACUCAAUAGUCGUACGUUCCCA [8491-94_129],Kd,"[2]; all P = NapdU, T1 = dT, 2'-OMe at 2,3,5,7,9,10,13,19,20,22-28, C3-spacer replaces C17, SB18T0.01, 37C",0.0179 nM
TGGUGACUCAAUAGUCGUATGUUCCCA [8491-94_131],Kd,"[2]; all P = NapdU, T = dT, 2'-OMe at 2,3,5,7,9,10,13,19,20,22-28, C3-spacer replaces C17, SB18T0.01, 37C",5.64 nM
UGACUCAAUAGUCCGUACGUUCCCGGUCCGAACGCGGAGGA [8491-94_10],Kd,"[2]; all U = NapdU, SB18T0.01, 37C",7.6 nM
UGGUGACUCAAUAGUCCGUACAUUCCCA [8491-94_139],Kd,"[2]; all P = NapdU, U1 = 2'-OMe-U, 2'-OMe at 1,2,3,5,7,9,10,13,19,20,22-28, SB18T0.01, 37C",26.7 nM
UGGUGACUCAAUAGUCGUACAUUCCCA [8491-94_138],Kd,[2]; [4],18.2 nM
UGGUGACUCAAUAGUCGUACGUUCCCA [8491-94_137],Kd,[2]; [4],0.119 nM
